In experiment [1] the target is Myosin IIA (human) (UniProt P35579). As to the kind of experiment: control (background) lane of the PolyHis pull-down, no bait peptides detected, mass spectrometry.
The target in experiment [2] is High mobility group protein B1 (human) (UniProt P09429). Described as above.
For experiment [3], the target named is Myosin IIA (human) (UniProt P35579). Kind of experiment: PolyHis pull-down with sCD27-his as bait from lysate of stimulated PBMCs, SDS-PAGE, mass spectrometry.
The target of experiment [4] is High mobility group protein B1 (human) (UniProt P09429). The description is as above.
In experiment [5] the target is recombinant sCD27 containing 6x his-Tag at the carboxyl terminus (human) (UniProt P26842). Kind of experiment: mock depletion on plate coated with control IgG, sCD27 ELISA of the supernatant. On the technique in general: In an ELISA, binding on a coated surface is turned into a signal by an enzyme label.

Data on two substances can be found in patent US20140341931A1.

High mobility group protein B1 (human), sequence (P09429 whole entry): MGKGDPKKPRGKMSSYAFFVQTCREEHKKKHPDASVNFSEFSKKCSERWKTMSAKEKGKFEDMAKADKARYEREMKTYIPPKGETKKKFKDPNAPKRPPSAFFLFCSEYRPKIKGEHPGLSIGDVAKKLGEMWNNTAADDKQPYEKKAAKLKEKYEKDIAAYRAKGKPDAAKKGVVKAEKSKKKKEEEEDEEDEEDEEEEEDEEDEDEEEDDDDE
Myosin IIA (human), sequence (P35579 2-1960 limits assumed): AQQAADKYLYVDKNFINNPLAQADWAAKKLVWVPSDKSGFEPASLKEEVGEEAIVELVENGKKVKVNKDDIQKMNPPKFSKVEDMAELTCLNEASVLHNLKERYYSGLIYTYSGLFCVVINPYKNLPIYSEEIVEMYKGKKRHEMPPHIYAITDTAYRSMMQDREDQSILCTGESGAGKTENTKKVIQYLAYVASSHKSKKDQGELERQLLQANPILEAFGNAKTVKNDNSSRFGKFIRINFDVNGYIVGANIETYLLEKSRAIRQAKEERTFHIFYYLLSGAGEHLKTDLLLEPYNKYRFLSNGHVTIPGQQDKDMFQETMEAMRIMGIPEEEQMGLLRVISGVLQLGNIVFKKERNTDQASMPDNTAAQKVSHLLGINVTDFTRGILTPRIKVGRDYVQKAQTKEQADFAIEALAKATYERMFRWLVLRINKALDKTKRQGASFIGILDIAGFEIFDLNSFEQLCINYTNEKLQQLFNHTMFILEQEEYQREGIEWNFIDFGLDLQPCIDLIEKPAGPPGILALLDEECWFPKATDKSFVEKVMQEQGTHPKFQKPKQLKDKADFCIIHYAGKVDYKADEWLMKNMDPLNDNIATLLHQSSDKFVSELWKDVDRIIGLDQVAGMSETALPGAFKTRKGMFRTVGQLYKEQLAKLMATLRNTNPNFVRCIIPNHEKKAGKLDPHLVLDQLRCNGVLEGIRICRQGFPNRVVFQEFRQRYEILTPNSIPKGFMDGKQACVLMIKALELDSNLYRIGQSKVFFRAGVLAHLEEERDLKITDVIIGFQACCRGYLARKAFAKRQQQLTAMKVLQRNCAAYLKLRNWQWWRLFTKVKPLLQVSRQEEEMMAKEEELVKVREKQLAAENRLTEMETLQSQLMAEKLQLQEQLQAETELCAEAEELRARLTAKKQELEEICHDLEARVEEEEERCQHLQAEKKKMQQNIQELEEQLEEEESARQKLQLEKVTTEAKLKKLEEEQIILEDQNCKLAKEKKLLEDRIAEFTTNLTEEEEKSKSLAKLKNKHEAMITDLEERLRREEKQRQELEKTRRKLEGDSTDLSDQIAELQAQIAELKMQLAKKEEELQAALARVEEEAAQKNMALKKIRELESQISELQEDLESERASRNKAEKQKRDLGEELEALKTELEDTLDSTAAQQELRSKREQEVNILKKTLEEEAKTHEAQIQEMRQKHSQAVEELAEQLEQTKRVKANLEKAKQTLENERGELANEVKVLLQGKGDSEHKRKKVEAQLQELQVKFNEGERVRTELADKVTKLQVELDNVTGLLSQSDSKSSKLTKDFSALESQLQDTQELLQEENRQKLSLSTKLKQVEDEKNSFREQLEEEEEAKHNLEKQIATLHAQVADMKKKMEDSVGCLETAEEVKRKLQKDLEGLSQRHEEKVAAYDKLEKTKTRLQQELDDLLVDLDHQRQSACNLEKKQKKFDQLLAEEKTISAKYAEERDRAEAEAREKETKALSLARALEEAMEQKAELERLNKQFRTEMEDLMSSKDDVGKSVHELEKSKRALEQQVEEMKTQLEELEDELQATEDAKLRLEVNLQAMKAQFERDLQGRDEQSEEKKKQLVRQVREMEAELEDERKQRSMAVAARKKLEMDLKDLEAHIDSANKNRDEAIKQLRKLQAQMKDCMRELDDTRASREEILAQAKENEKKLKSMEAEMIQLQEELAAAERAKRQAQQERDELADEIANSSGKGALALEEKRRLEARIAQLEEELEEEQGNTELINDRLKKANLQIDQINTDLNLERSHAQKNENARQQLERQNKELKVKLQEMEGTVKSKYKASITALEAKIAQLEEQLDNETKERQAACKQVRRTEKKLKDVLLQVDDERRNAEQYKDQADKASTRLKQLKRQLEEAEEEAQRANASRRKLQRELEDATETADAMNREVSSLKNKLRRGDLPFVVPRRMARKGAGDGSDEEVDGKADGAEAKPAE

As for “recombinant sCD27 containing 6x his-Tag at the carboxyl terminus (from UniProt P26842 20-189) (receptor)”, the TPC (total peptide count) in Lane 4 (background) in the experiment with Myosin IIA (human) [1] is 14 peptides; in experiment [2], 5 peptides. Also, the TPC (total peptide count) in Lane 2 (positive) with Myosin IIA (human) [3] came to 79 peptides; in experiment [4], 44 peptides.

For “IgG control (R&D Systems Inc.) (antibody)”, in experiment [5], the sCD27 value left after depletion turned out to be 1.4 ng/mL.
